The values below come from patent CN112830969A (JIANGSU NOVOMAB BIOPHARMACEUTICALS INC, dated 2021).

As usually defined, the EC50 is the concentration giving half of the maximal effect.

The target of one test is T1, 人Claudin18.1 (过表达细胞) (human, UniProt P56856 1-261).
T1 construct: whole, on cells; also called CLDN18.1; Caludin18.1
The test can be described thus: cell ELISA on 293 cells transfected with human Claudin18.1. In general terms: ELISA stands for enzyme-linked immunosorbent assay.

Test [1] deals with T2, 人Claudin18.2-His重组蛋白(Kactus,Cat.CLD-HE1821) (human, UniProt P56856-2 1-261, limits assumed).
T2 construct: Bought protein; also called Claudin18.2重组蛋白; not shown: His tag
Briefly: ELISA, human Claudin18.2-His coated.

Test [2] has as its target T3, 人Claudin18.2 (过表达细胞) (human, UniProt P56856-2 1-261).
T3 construct: whole, on cells; also called CLDN18.2; Claudin18.2细胞
The test can be described thus: cell ELISA on 293 cells transfected with human Claudin18.2.

For test [3], the target named is T3, 人Claudin18.2 (过表达细胞). Briefly: cell-based or functional assay.

B1: 人源化抗体HA1LA1 (antibody, human IgG1, kappa, V domains shown)
VH: QVQLVESGGGVVQPGRSLRLSCAASGFTFSTYGVHWVRQAPGKGLEWVAVIWNGGNTDYNAAFISRFTISRDNSKNTLYLQMNSLRAEDTAVYYCARNRRGGGFGMDYWGQGTLVTVSS
VL: DIVMTQSPDSLAVSLGERATINCKSSQSLLNGGIQKNYLTWYQQKPGQPPKLLIYWASTRESGVPDRFSGSGSGTDFTLTISSLQAEDVAVYYCQNAYTYPFTFGQGTKLEIKR
notes: also called Claudin18.2单抗对照
Turning to B1, the binding result with 人Claudin18.1 (过表达细胞) is listed as “no binding”. Moreover, the EC50 in test [1] came to 0.49 µg/mL; with 人Claudin18.2 (过表达细胞) [2], 0.028 µg/mL. Moreover, in the test with 人Claudin18.2 (过表达细胞) [3], the “ADCC活性 EC50 (靶细胞的裂解百分比, LDH; NUGC4-Claudin18.2靶细胞, NK92效应细胞)” value was 0.0126 nM.

B2: 对照抗体(来自专利CN20148000912) (antibody, V domains shown)
VH: QIQLVQSGPELKKPGETVKISCKASGYTFTNYGMNWVKQAPGKGLKWMGWINTNTGEPTYAEEFKGRFAFSLETSASTAYLQINNLKNEDTATYFCARLGFGNAMDYWGQGTSVTVSS
VL: DIVMTQSPSSLTVTAGEKVTMSCKSSQSLLNSGNQKNYLTWYQQKPGQPPKLLIYWASTRESGVPDRFTGSGSGTDFTLTISSVQAEDLAVYYCQNDYSYPLTFGAGTKLELK
On to B2, for which, in the test with 人Claudin18.1 (过表达细胞), the binding result is on record as “no binding”. Also, the EC50 with 人Claudin18.2 (过表达细胞) [2] was 0.119 µg/mL. For the same molecule, the “ADCC活性 EC50 (靶细胞的裂解百分比, LDH; NUGC4-Claudin18.2靶细胞, NK92效应细胞)” value with 人Claudin18.2 (过表达细胞) [3] came to 0.0575 nM.
